Data from US20250296971A1, “GASTRIC INHIBITORY PEPTIDE RECEPTOR LIGANDS” (priority 2021, published 2025).
*1 amine or outer side, *2 acyl side, *3 side chain or, on linkers, in order; H or OH if unused. Bridges are numbered along the chain shown (N, C = ends). Primed or numbered codes have the meaning given here. [ ]: non-standard residue; d: D form. The star is where a group is joined. Ttds = 1,13-diamino-4,7,10-trioxatridecan-succinamic acid, NCCCOCCOCCOCCCNC(=O)CCC(=O)*; DOTA(In) = O=C1CN2CCN3CCN(CC(=O)*)CCN(CC2)CC(=O)[O][In]([O]1)[O]C(=O)C3; DOTA(Lu) = O=C1CN2CCN3CCN(CC(=O)*)CCN(CC2)CC(=O)[O][Lu]([O]1)[O]C(=O)C3; NH(1-deoxy-D-glucityl) = OC[C@@H](O)[C@@H](O)[C@H](O)[C@@H](O)CN*; (dE)(AGLU) = D-glutamic acid bearing 1-amino-1-deoxy-D-glucitol; APAc″ = 4-amino-1-carboxymethylpiperidine, NC1CCN(CC(=O)*)CC1; dE(AGLU) = D-glutamic acid bearing 1-amino-1-deoxy-D-glucitol; Pro(trans-4-NH2) = O=C([C@@H]1C[C@@H](N[*:3])CN1[*:1])[*:2]; DOTA = O=C(O)CN1CCN(CC(=O)O)CCN(CC(=O)*)CCN(CC(=O)O)CC1; 2Lut = 2,6-lutidylidene bridge between two thiols; N(CH2CH2CO)Gly = O=C(CN(CCC(=O)[*:3])[*:1])[*:2]; Trp(5-Br) = N[C@@H](Cc1c[nH]c2ccc(Br)cc12)C(=O)O; Trp(5-Cl) = N[C@@H](Cc1c[nH]c2ccc(Cl)cc12)C(=O)O; Pyridine(2,6-diCH2) = c1cc(C[*:1])nc(C[*:2])c1; Cysol = L-cysteinol, OC[C@H](CS[*:3])N[*:1]; Pro(trans-4-F) = O=C(O)[C@@H]1C[C@@H](F)CN1; APAc = 4-amino-1-carboxymethylpiperidine; mXylylene = c1cc(C[*:1])cc(C[*:2])c1; LuDOTA = DOTA Lutetium(III) complex; Glutaryl = O=C(CCCC(=O)[*:2])[*:1]; AGLU = 1-amino-1-deoxy-D-glucitol; Hyp = O=C(O)[C@@H]1C[C@@H](O)CN1; Cysteamide = C(CS[*:3])N[*:1]; Suc = O=C(CCC(=O)[*:2])[*:1]; hSer = N[C@@H](CCO)C(=O)O; αMeS = C[C@](N)(CO)C(=O)O; Api = NC1(C(=O)O)CCNCC1; Nphe′ = N-phenylalanine; Thp = NC1(C(=O)O)CCOCC1; Aib = CC(C)(N)C(=O)O; Nlys = NCCCCNCC(=O)O; Nleu′ = N-leucine; Sar = CNCC(=O)O

B1: InDOTA-Ttds-Asp-Trp-5Clw-Pro-Glu-leu-[Cys(2Lut)-Aib-Leu-Ile-AET] (peptide)
peptide: {DOTA(In)-Ttds}-DW[Trp(5-Cl)]PE[dL]C[Aib]LI[Cysteamide]
modifications: linker 7-11 via 2Lut; also: DOTA as indium complex (InDOTA)
B2: LuDOTA-Ttds-Asp-Trp-5Clw-Pro-Glu-leu-[Cys(3MeBn)-Ams-Leu-Ile-AET] (peptide)
peptide: {LuDOTA-Ttds}-DW[Trp(5-Cl)]PE[dL]C[αMeS]LI[Cysteamide]
modifications: linker 7-11 via mXylylene
B3: LuDOTA-Ttds-Asp-Trp-5Clw-Pro-Glu-leu-[Cys(3MeBn)-Thp-Leu-Ile-AET] (peptide)
peptide: {LuDOTA-Ttds}-DW[Trp(5-Cl)]PE[dL]C[Thp]LI[Cysteamide]
modifications: linker 7-11 via mXylylene
B4: LuDOTA-Ttds-Asp-Trp-5Clw-Hyp-Glu-leu-[Cys(3MeBn)-Aib-Leu-Ile-AET] (peptide)
peptide: {LuDOTA-Ttds}-DW[Trp(5-Cl)][Hyp]E[dL]C[Aib]LI[Cysteamide]
modifications: linker 7-11 via mXylylene
B5: AGLU-Glutar-APAc-Asp-Trp-5Clw-Tap-Glu-leu-[Cys(2Lut)-Apc(DOTA)-Leu-Ile-Cys]-APAc-glu(AGLU)-NH2 (peptide)
peptide: {AGLU-Glutaryl-APAc}-DW[Trp(5-Cl)][Pro(trans-4-NH2)]E[dL]C[Api](DOTA)LIC-{APAc-dE(AGLU)-NH2}
modifications: linker 7-11 via Pyridine(2,6-diCH2)
B6: LuDOTA-Ttds-Asp-Trp-5Clw-Nmg-Glu-leu-[Cys(3MeBn)-Aib-Leu-Ile-AET] (peptide)
peptide: {LuDOTA-Ttds}-DW[Trp(5-Cl)][Sar]E[dL]C[Aib]LI[Cysteamide]
modifications: linker 7-11 via mXylylene
B7: LuDOTA-APAc-Asp-Trp-5Clw-Pro-Glu-leu-[Cys(3MeBn)-Aib-Leu-Ile-AET] (peptide)
peptide: {LuDOTA-APAc″}-DW[Trp(5-Cl)]PE[dL]C[Aib]LI[Cysteamide]
modifications: linker 7-11 via mXylylene
B8: LuDOTA-APAc-Asp-Trp-5Clw-Hyp-Glu-leu-[Cys(2Lut)-Thp-Leu-Ile-AET] (peptide)
peptide: {LuDOTA-APAc″}-DW[Trp(5-Cl)][Hyp]E[dL]C[Thp]LI[Cysteamide]
modifications: linker 7-11 via Pyridine(2,6-diCH2)
B9: LuDOTA-Ttds-Asp-Trp-5Clw-Pro-Glu-leu-[Cys(2Lut)-Aib-Leu-Ile-AET] (peptide)
peptide: {LuDOTA-Ttds}-DW[Trp(5-Cl)]PE[dL]C[Aib]LI[Cysteamide]
modifications: linker 7-11 via Pyridine(2,6-diCH2)
B10: HO-Succinyl-Trp-5Clw-Hyp-Glu-leu-[Cys(2Lut)-Thp-Leu-Ile-Cys]-APAc-Lys(InDOTA)-NH2 (peptide)
peptide: Suc-W[Trp(5-Cl)][Hyp]E[dL]C[Thp]LIC-{APAc-Lys(InDOTA)-NH2}
modifications: linker 6-10 via 2Lut; also: In complex of DOTA
B11: AGLU-Glutar-APAc-Asp-Trp-5Brw-Tap-Glu-leu-[Cys(2Lut)-Apc(DOTA)-Leu-Ile-Cys]-APAc-glu(AGLU)-NH2 (peptide)
peptide: {AGLU-Glutaryl-APAc}-DW[Trp(5-Br)][Pro(trans-4-NH2)]E[dL]C[Api](DOTA)LIC-{APAc-dE(AGLU)-NH2}
modifications: linker 7-11 via Pyridine(2,6-diCH2)
B12: HO-Succinyl-Trp-5Clw-Hyp-Glu-leu-[Cys(2Lut)-Thp-Leu-Ile-Cys]-APAc-Lys(LuDOTA)-NH2 (peptide)
peptide: Suc-W[Trp(5-Cl)][Hyp]E[dL]C[Thp]LIC-{APAc-Lys(LuDOTA)-NH2}
modifications: linker 6-10 via 2Lut; also: Lu complex of DOTA
B13: HO-Succinyl-Trp-5Clw-Hyp-Glu-leu-[Cys(2Lut)-Apc(LuDOTA)-Leu-Ile-AET] (peptide)
peptide: Suc-W[Trp(5-Cl)][Hyp]E[dL]C[Api](DOTA(Lu))LI[Cysteamide]
modifications: linker 6-10 via 2Lut; also: Lu complex of DOTA
B14: AGLU-Glutar-Asp-Trp-5Clw-Hyp-Glu-leu-[Cys(2Lut)-Thp-Leu-Ile-Cys]-APAc-glu(AGLU)-NH2 (peptide)
peptide: {AGLU-Glutaryl}-DW[Trp(5-Cl)][Hyp]E[dL]C[Thp]LIC-{APAc-dE(AGLU)-NH2}
modifications: linker 7-11 via Pyridine(2,6-diCH2)
B15: Ac-Asp-Trp-5Clw-Tap(AGLU-Glutar)-Glu-leu-[Cys(2Lut)-Thp-Leu-Ile-Cys]-NH2 (peptide)
peptide: Ac-DW[Trp(5-Cl)][Pro(trans-4-NH2)]E[dL]C[Thp]LIC-NH2
modifications: linker 7-11 via Pyridine(2,6-diCH2); not fully specified (residue 4); printed as Ac-Asp-Trp-5Clw-Tap(AGLU-Glutar)-Glu-leu-[Cys(2Lut)-Thp-Leu-Ile-Cys]-NH2
B16: Ac-Asp-Trp-5Clw-Nglu(AGLU)-Glu-leu-[Cys(2Lut)-Thp-Leu-Ile-Cys]-NH2 (peptide)
peptide: Ac-DW[Trp(5-Cl)][N(CH2CH2CO)Gly](NH(1-deoxy-D-glucityl))E[dL]C[Thp]LIC-NH2
modifications: linker 7-11 via Pyridine(2,6-diCH2)
B17: Ac-Asp-Trp-5Clw-Hyp-Glu-leu-[Cys(2Lut)-Thp-Leu-Ile-Cys]-APAc-glu(AGLU)-NH2 (peptide)
peptide: Ac-DW[Trp(5-Cl)][Hyp]E[dL]C[Thp]LIC-{APAc-(dE)(AGLU)-NH2}
modifications: linker 7-11 via Pyridine(2,6-diCH2)
B18: AGLU-Glutar-Asp-Trp-5Clw-Hyp-Glu-leu-[Cys(2Lut)-Thp-Leu-Ile-Cys]-NH2 (peptide)
peptide: {AGLU-Glutaryl}-DW[Trp(5-Cl)][Hyp]E[dL]C[Thp]LIC-NH2
modifications: linker 7-11 via Pyridine(2,6-diCH2)
B19: AGLU-Glutar-Asp-Trp-5Brw-Tap-Glu-leu-[Cys(2Lut)-Apc(DOTA)-Leu-Ile-Cys]-APAc-glu(AGLU)-NH2 (peptide)
peptide: DWXXEXCXLIC
modifications: N-term AGLU-Glutar; 5Brw; Tap; leu (D-Leu); thioether cycle [Cys(2Lut)..Cys]; Apc(DOTA); C-term APAc-glu(AGLU)-NH2
B20: Ac-Asp-Trp-5Clw-Hyp-Glu-leu-[Cys(2Lut)-Thp-Leu-Ile-Cys]-NH2 (peptide)
peptide: Ac-DW[Trp(5-Cl)][Hyp]E[dL]C[Thp]LIC-NH2
modifications: linker 7-11 via Pyridine(2,6-diCH2)
B21: Ac-Asp-Trp-5Clw-Hyp-Glu-leu-[Cys(2Lut)-Thp-Leu-Ile-Cys]-OH (peptide)
peptide: Ac-DW[Trp(5-Cl)][Hyp]E[dL]C[Thp]LIC-OH
modifications: linker 7-11 via Pyridine(2,6-diCH2)
B22: Ac-Asp-Trp-5Clw-Hyp-Glu-leu-[Cys(2Lut)-Thp-Leu-Ile-Cysol]-OH (peptide)
peptide: Ac-DW[Trp(5-Cl)][Hyp]E[dL]C[Thp]LI[Cysol]-OH
modifications: linker 7-11 via Pyridine(2,6-diCH2)
B23: Ac-Asp-Trp-5Clw-Nmg-Glu-leu-[Cys(2Lut)-Thp-Leu-Ile-Cys]-NH2 (peptide)
peptide: Ac-DW[Trp(5-Cl)][Sar]E[dL]C[Thp]LIC-NH2
modifications: linker 7-11 via Pyridine(2,6-diCH2)
B24: Ac-Asp-Trp-5Clw-Nleu-Glu-leu-[Cys(2Lut)-Thp-Leu-Ile-Cys]-NH2 (peptide)
peptide: Ac-DW[Trp(5-Cl)][Nleu′]E[dL]C[Thp]LIC-NH2
modifications: linker 7-11 via Pyridine(2,6-diCH2)
B25: Ac-Asp-Trp-5Clw-Nphe-Glu-leu-[Cys(2Lut)-Thp-Leu-Ile-Cys]-NH2 (peptide)
peptide: Ac-DW[Trp(5-Cl)][Nphe′]E[dL]C[Thp]LIC-NH2
modifications: linker 7-11 via Pyridine(2,6-diCH2)
B26: Ac-Asp-Trp-5Clw-Nlys-Glu-leu-[Cys(2Lut)-Thp-Leu-Ile-Cys]-NH2 (peptide)
peptide: Ac-DW[Trp(5-Cl)][Nlys]E[dL]C[Thp]LIC-NH2
modifications: linker 7-11 via Pyridine(2,6-diCH2)
B27: Ac-Asp-Trp-5Clw-4Tfp-Glu-leu-[Cys(2Lut)-Thp-Leu-Ile-Cys]-NH2 (peptide)
peptide: Ac-DW[Trp(5-Cl)][Pro(trans-4-F)]E[dL]C[Thp]LIC-NH2
modifications: linker 7-11 via Pyridine(2,6-diCH2)
B28: AGLU-Glutar-Hse-Trp-5Brw-Tap-Glu-leu-[Cys(2Lut)-Apc(DOTA)-Leu-Ile-Cys]-APAc-glu(AGLU)-NH2 (peptide)
peptide: {AGLU-Glutaryl}-[hSer]W[Trp(5-Br)][Pro(trans-4-NH2)]E[dL]C[Api](DOTA)LIC-{APAc-dE(AGLU)-NH2}
modifications: linker 7-11 via Pyridine(2,6-diCH2)

molecular target: human Gastric Inhibitory Peptide Receptor (human) (UniProt P48546); assay: FACS competition with GIP-057 on CHO-K1-hGIPR cells; pIC50 category A: >8.0
Sequence (P48546 22-466 limits assumed): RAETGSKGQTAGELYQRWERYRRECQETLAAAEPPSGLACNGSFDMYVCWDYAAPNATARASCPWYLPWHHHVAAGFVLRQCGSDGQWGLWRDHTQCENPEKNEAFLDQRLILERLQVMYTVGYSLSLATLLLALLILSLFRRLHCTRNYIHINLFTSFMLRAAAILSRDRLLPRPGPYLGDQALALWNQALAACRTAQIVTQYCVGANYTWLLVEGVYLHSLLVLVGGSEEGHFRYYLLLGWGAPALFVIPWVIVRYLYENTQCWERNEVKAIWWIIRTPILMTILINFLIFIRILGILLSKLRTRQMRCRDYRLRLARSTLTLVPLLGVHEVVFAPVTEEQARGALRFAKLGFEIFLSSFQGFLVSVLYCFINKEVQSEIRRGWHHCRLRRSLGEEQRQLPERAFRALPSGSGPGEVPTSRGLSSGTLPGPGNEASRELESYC

pIC50, > 8 pic50:
B1
B2
B3
B4
B5
B6
B7
B8
B9
B10
B11
B12
B13
B14
B15
B16
B17
B18
B19
B20
B21
B22
B23
B24
B25
B26
B27
B28
